Consider 2 proteins from patent publication US5106621A, “Cysteine proteinases, production and use” (priority 1987, dated 1992).

Assay type in all cases: biochemical, Ananas comosus
Substrate in data set [1]: Cc1cc(=O)oc2cc(NC(=O)[C@H](CCCNC(=N)N)NC(=O)[C@H](Cc3ccccc3)NC(=O)OCc3ccccc3)ccc12
In words: Kinetics of hydrolysis of fluorimetric substrates by bromelain. Conditions: other: bromelain, 40° C., pH 6.8 buffer, 0.007% Brij 35, substrate 2 to 100 μM, spread = standard deviation. The procedure: (§1) The enzymes used were affinity purified ananain and comosain (Examples 1 and 2) and bromelain, which was obtained from chromatography-purified Sigma bromelain (catalogue number B 5144) by affinity chromatography on a column of Sepharose-aminohexanoyl-Gly-Phe-Gly-semicarbazide, followed by dialysis into 1 mM EDTA and lyophilisation. The proteinases were standardised by E-64 titration as described in Example 8.
(§2) Ananain used for this example was obtained by the method described in Example 1: the bromelain used was as in Example 4.
(§3) For the determination of kinetic parameters Km (the Michaelis Constant) and kcat (the turnover number) of hydrolysis of Z-Phe-Arg-NHMec and Z-Arg-Arg-NHMec, measurements of the initial rates of reaction were made in 0.007% Brij 35 at 40° C. The enzymes (1×10^-11 M to 1×10^-9 M final concentration of activatable enzyme as determined by active-site titration) were activated in 0.75 ml of 4-fold concentrated buffer in a fluorimetric cuvette at 40° C. for 2 min, to which pre-warmed 0.01% Brij was added, followed by substrate to a final volume of 3.0 ml. Continuous rate assays were carried out using a temperature-controlled cell, with stirring, in the fluorimeter ([…]), standardized so that 1000 arbitrary units corresponded to 0.2 μM coumarin (i.e. at most, 10% substrate hydrolysis). Substrate concentration(s) used were in the range 2 to 100 μM. Visual inspection of the data was performed using the direct linear plot and plots of s/v against s (v being the rate of product formation). (Henderson, P. J. F., Techniques in Protein and Enzyme Biochemistry, B113, 1-43, 1978). Values of Km and Vmax (the maximum rate of product formation at a given enzyme concentration) were calculated by the method of Wilkinson, G. N., Biochem. J., 80, 324-332, 1961.

Substrate in data set [2]: Cc1cc(=O)oc2cc(NC(=O)[C@H](CCCNC(=N)N)NC(=O)[C@H](CCCNC(=N)N)NC(=O)OCc3ccccc3)ccc12
The data set is described as above. Conditions: other: bromelain, 40° C., pH 6.8 buffer, 0.007% Brij 35, substrate 2 to 100 μM, spread = standard deviation. On the procedure:
as §1, §2, §3

Substrate in data set [3]: Cc1cc(=O)oc2cc(NC(=O)[C@H](CCCNC(=N)N)NC(=O)[C@H](Cc3ccccc3)NC(=O)OCc3ccccc3)ccc12
The data set can be described thus: Kinetics of hydrolysis of fluorimetric substrates by ananain. The settings on record: other: ananain, 40° C., pH 6.8 buffer, 0.007% Brij 35, substrate 2 to 100 μM, spread = standard deviation. On the procedure: as §3, with “used for this example was obtained by the method described in Example 1: the bromelain used was as in Example 4. For” for “For”

Substrate in data set [4]: Cc1cc(=O)oc2cc(NC(=O)[C@H](CCCNC(=N)N)NC(=O)[C@H](CCCNC(=N)N)NC(=O)OCc3ccccc3)ccc12
The data set is described as above. The settings on record: other: ananain, 40° C., pH 6.8 buffer, 0.007% Brij 35, substrate 2 to 100 μM, spread = standard deviation. On the procedure: as §3, with “used for this example was obtained by the method described in Example 1: the bromelain used was as in Example 4. For” for “For”

B1: bromelain (stem bromelain, EC 3.4.22.4), affinity purified from Sigma bromelain, pineapple (Ananas comosus) stem (Ananas comosus) (protein)
chain: AVPQSIDWRDYGAVTSVKNQNPCGACWAFAAIATVESIYKIKKGILEPLSEQQVLDCAKGYGCKGGWEFRAFEFIISNKGVASGAIYPYKAAKGTCKTDGVPNSAYITGYARVPRNNESSMMYAVSKQPITVAVDANANFQYYKSGVFNGPCGTSLNHAVTAIGYGQDSIIYPKKWGAKWGEAGYIRMARDVSSSSGICGIAIDPLYPTLEE
notes: purchased Sigma B 5144
With B1, in data set [1], the Km was 83.1 (±14.1) μM, the kcat is recorded as 0.14 (±0.01) s^-1 and the kcat/Km is reported as 0.0016 (±0.0003) s^-1 · μM^-1. In addition, in data set [2], the Km is reported as 15.4 (±2.8) μM, the kcat was 27.3 (±1.9) s^-1 and the kcat/Km is 1.77 (±0.37) s^-1 · μM^-1.

B2: ananain, cysteine proteinase purified from pineapple (Ananas comosus) stem extract (Ananas comosus) (protein)
chain: VPQSIDWRDSGAVTSVKNQGRCGSCWAFASIATVESIYKIKRGNLVSLSEQQVLDCAVSYGCKGGWINKAYSFIISNKGVASAAIYPYKAAKGTCKTNGVPNSAYITRYTYVQRNNERNMMYAVSNQPIAAALDASGNFQHYKRGVFTGPCGTRLNHAIVIIGYGQDSSGKKFWIVRNSWGAGWGEGGYIRLARDVSSSFGLCGIAMDPLYPTLQS
notes: from tissue; host or cells: pineapple stem extract (from the earlier reading)
Consider B2, for which, in data set [3], the Km is 48.3 (±4.8) μM, the kcat is 7.07 (±0.3) s^-1 and the kcat/Km is 0.146 (±0.02) s^-1 · μM^-1. Further, in data set [4], the Km is reported as 44.5 (±9.0) μM, the kcat is recorded as 0.323 (±0.03) s^-1 and the kcat/Km is given as 0.007 (±0.002) s^-1 · μM^-1.
